Test system: Escherichia coli TOP10
Assay: shrunken log2 fold change of peptide-encoding DNA abundance (4.5 h post-induction vs induction); higher = less antimicrobial activity (less host growth inhibition)
Conditions: time post-induction: 4.5 h; library: site-saturation at positions 5, 18, 19, 20
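Further: peptides expressed intracellularly from a pBAD plasmid library in pooled LB shake-flask culture, induced with 0.3% L-arabinose, DNA abundance read by NGS, three biological replicates, DESeq2 with apeglm shrinkage.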

Sequence	shrunken log2 fold change
RRIRSRPPRLPRPRPRPWGFPRP	-0.0589
RRIRHRPPRLPRPRPRPACYPRP	-0.226
RRIRYRPPRLPRPRPRPCFNPRP	-0.262
RRIRLRPPRLPRPRPRPQDYPRP	-0.31
RRIRDRPPRLPRPRPRPTVKPRP	-0.043
RRIRHRPPRLPRPRPRPTCHPRP	-0.647
RRIRTRPPRLPRPRPRPTNKPRP	-0.444
RRIRCRPPRLPRPRPRPQPCPRP	0.0038
RRIRERPPRLPRPRPRPCCNPRP	-0.0562
RRIRLRPPRLPRPRPRPMPCPRP	-0.12
RRIRARPPRLPRPRPRPCGMPRP	0.0551
RRIRPRPPRLPRPRPRPRCAPRP	1.73
RRIRVRPPRLPRPRPRPPSAPRP	0.47
RRIRERPPRLPRPRPRPYGPPRP	-1.02
RRIRTRPPRLPRPRPRPTIFPRP	-0.2
RRIRLRPPRLPRPRPRPNGGPRP	-0.01
RRIRMRPPRLPRPRPRPLKTPRP	0.642
RRIRMRPPRLPRPRPRPGATPRP	1.38
RRIRTRPPRLPRPRPRPCMGPRP	-0.247
RRIRGRPPRLPRPRPRPIIKPRP	0.237
RRIRCRPPRLPRPRPRPCFMPRP	-0.416
RRIRDRPPRLPRPRPRPGRDPRP	0.193
RRIRPRPPRLPRPRPRPCQFPRP	-0.246
RRIRTRPPRLPRPRPRPNFDPRP	0.232
RRIRERPPRLPRPRPRPGKCPRP	-0.205

Sequence	shrunken log2 fold change
RRIRTRPPRLPRPRPRPPADPRP	0.217
RRIRGRPPRLPRPRPRPYMYPRP	-0.251
RRIRDRPPRLPRPRPRPLFAPRP	0.65
RRIRVRPPRLPRPRPRPGFEPRP	0.554
RRIRPRPPRLPRPRPRPAPLPRP	0.407
RRIRTRPPRLPRPRPRPHRWPRP	-0.254
RRIRERPPRLPRPRPRPCRNPRP	-0.269
RRIRLRPPRLPRPRPRPYAAPRP	-0.36
RRIRWRPPRLPRPRPRPDHPPRP	-0.0785
RRIRARPPRLPRPRPRPMQCPRP	0.0593
RRIRLRPPRLPRPRPRPWRFPRP	0.271
RRIRARPPRLPRPRPRPAHYPRP	0.095
RRIRHRPPRLPRPRPRPTVEPRP	-0.0265
RRIRDRPPRLPRPRPRPLVLPRP	0.176
RRIRVRPPRLPRPRPRPFHHPRP	-0.182
RRIRPRPPRLPRPRPRPSQMPRP	0.185
RRIRERPPRLPRPRPRPLGRPRP	-0.0894
RRIRMRPPRLPRPRPRPMAFPRP	0.102
RRIRIRPPRLPRPRPRPYFLPRP	-0.921
RRIRPRPPRLPRPRPRPGFIPRP	-0.221
RRIRTRPPRLPRPRPRPCVIPRP	-0.029
RRIRRRPPRLPRPRPRPKRPPRP	0.656
RRIRYRPPRLPRPRPRPWKSPRP	-0.118
RRIRRRPPRLPRPRPRPCDIPRP	0.181
RRIRLRPPRLPRPRPRPACRPRP	0.227

Sequence	shrunken log2 fold change
RRIRMRPPRLPRPRPRPAFGPRP	1.05
RRIRARPPRLPRPRPRPMTRPRP	0.849
RRIRNRPPRLPRPRPRPNHLPRP	-0.317
RRIRTRPPRLPRPRPRPETPPRP	0.493
RRIRDRPPRLPRPRPRPPHDPRP	2.35
RRIRCRPPRLPRPRPRPQFNPRP	-0.98
RRIRGRPPRLPRPRPRPIGFPRP	0.061
RRIRHRPPRLPRPRPRPQQSPRP	-0.0132
RRIRCRPPRLPRPRPRPVAYPRP	-0.232
RRIRMRPPRLPRPRPRPSFIPRP	-0.668
RRIRKRPPRLPRPRPRPRFGPRP	0.217
RRIRPRPPRLPRPRPRPSHWPRP	0.959
RRIRCRPPRLPRPRPRPKGSPRP	0.189
RRIRFRPPRLPRPRPRPKPFPRP	0.0515
RRIRFRPPRLPRPRPRPVPMPRP	0.108
RRIRTRPPRLPRPRPRPIYHPRP	-0.191
RRIRLRPPRLPRPRPRPWYVPRP	-0.125
RRIRQRPPRLPRPRPRPTYGPRP	-0.293
RRIRGRPPRLPRPRPRPIICPRP	0.026
RRIRFRPPRLPRPRPRPGNPPRP	-0.00343
RRIRYRPPRLPRPRPRPFPPPRP	-0.809
RRIRRRPPRLPRPRPRPELMPRP	0.0537
RRIRDRPPRLPRPRPRPYCSPRP	-0.335
RRIRKRPPRLPRPRPRPMLRPRP	0.308
RRIRQRPPRLPRPRPRPDYCPRP	-0.163

Sequence	shrunken log2 fold change
RRIRRRPPRLPRPRPRPFLYPRP	0.0538
RRIRGRPPRLPRPRPRPIVWPRP	0.381
RRIRERPPRLPRPRPRPGYPPRP	-0.216
RRIRQRPPRLPRPRPRPPGQPRP	0.136
RRIRLRPPRLPRPRPRPLDHPRP	-0.1
RRIRTRPPRLPRPRPRPGWDPRP	0.129
RRIRIRPPRLPRPRPRPDPFPRP	0.261
RRIRLRPPRLPRPRPRPPVGPRP	1.42
RRIRERPPRLPRPRPRPIYIPRP	-0.138
RRIRFRPPRLPRPRPRPRDNPRP	-0.173
RRIRVRPPRLPRPRPRPRGAPRP	0.567
RRIRKRPPRLPRPRPRPGMAPRP	0.315
RRIRIRPPRLPRPRPRPTIVPRP	0.119
RRIRVRPPRLPRPRPRPGSSPRP	-0.169
RRIRVRPPRLPRPRPRPIEPPRP	-0.065
RRIRYRPPRLPRPRPRPHVIPRP	-0.448
RRIRWRPPRLPRPRPRPPDFPRP	-0.087
RRIRLRPPRLPRPRPRPWWTPRP	-0.312
RRIRERPPRLPRPRPRPSDSPRP	-0.186
RRIRQRPPRLPRPRPRPENSPRP	-0.0723
RRIRSRPPRLPRPRPRPEEWPRP	-0.0481
RRIRFRPPRLPRPRPRPILVPRP	-0.152
RRIRHRPPRLPRPRPRPIPNPRP	0.101
RRIRGRPPRLPRPRPRPWAIPRP	0.259
RRIRIRPPRLPRPRPRPWHPPRP	-0.383

Sequence	shrunken log2 fold change
RRIRARPPRLPRPRPRPAVRPRP	0.545
RRIRVRPPRLPRPRPRPQNDPRP	-0.292
RRIRGRPPRLPRPRPRPHDGPRP	0.0288
RRIRYRPPRLPRPRPRPILNPRP	-0.768
RRIRPRPPRLPRPRPRPLTIPRP	-0.275
RRIRFRPPRLPRPRPRPISFPRP	-0.0661
RRIRLRPPRLPRPRPRPHEKPRP	0.0162
RRIRKRPPRLPRPRPRPYFFPRP	0.168
RRIRHRPPRLPRPRPRPNIHPRP	-0.364
RRIRYRPPRLPRPRPRPYCDPRP	-0.379
RRIRVRPPRLPRPRPRPPVLPRP	-0.201
RRIRWRPPRLPRPRPRPVCKPRP	0.643
RRIRTRPPRLPRPRPRPAYLPRP	-0.0925
RRIRDRPPRLPRPRPRPELEPRP	0.05
RRIRDRPPRLPRPRPRPHWHPRP	-0.192
RRIRVRPPRLPRPRPRPYWIPRP	-0.163
RRIRDRPPRLPRPRPRPDMDPRP	0.2
RRIRLRPPRLPRPRPRPFADPRP	0.0979
RRIRVRPPRLPRPRPRPCSDPRP	-0.0601
RRIRARPPRLPRPRPRPRSEPRP	0.42
RRIRVRPPRLPRPRPRPKIMPRP	-0.193
RRIRPRPPRLPRPRPRPRLLPRP	0.321
RRIRRRPPRLPRPRPRPKPPPRP	0.735
RRIRTRPPRLPRPRPRPSQRPRP	0.0168
RRIRARPPRLPRPRPRPKWYPRP	0.056

Sequence	shrunken log2 fold change
RRIRIRPPRLPRPRPRPPMYPRP	-0.849
RRIRNRPPRLPRPRPRPNDGPRP	-0.00674
RRIRSRPPRLPRPRPRPQIVPRP	-0.32
RRIRERPPRLPRPRPRPVIMPRP	-0.458
RRIRARPPRLPRPRPRPSCTPRP	0.44
RRIRPRPPRLPRPRPRPRWEPRP	0.444
RRIRMRPPRLPRPRPRPEIFPRP	1.27
RRIRLRPPRLPRPRPRPNTMPRP	-0.501
RRIRERPPRLPRPRPRPIWPPRP	0.0406
RRIRRRPPRLPRPRPRPHFQPRP	-0.0173
RRIRCRPPRLPRPRPRPHNYPRP	-0.831
RRIRHRPPRLPRPRPRPHKHPRP	-0.546
RRIRPRPPRLPRPRPRPWRHPRP	-0.0659
RRIRIRPPRLPRPRPRPTNIPRP	-0.237
RRIRDRPPRLPRPRPRPQPAPRP	0.559
RRIRDRPPRLPRPRPRPKFGPRP	0.0019
RRIRTRPPRLPRPRPRPSICPRP	-0.899
RRIRSRPPRLPRPRPRPYEFPRP	-0.438
RRIRRRPPRLPRPRPRPYTMPRP	-0.255
RRIRDRPPRLPRPRPRPMDWPRP	0.0545
RRIRCRPPRLPRPRPRPCVIPRP	-0.334
RRIRFRPPRLPRPRPRPSVGPRP	-0.453
RRIRIRPPRLPRPRPRPHVDPRP	-0.294
RRIRHRPPRLPRPRPRPFWYPRP	-0.167
RRIRVRPPRLPRPRPRPLFCPRP	-0.103
